Laboratory results as given in patent publication US20150329614A1 (Novartis, published 2015).

Target: T1, rec. human IGF-1R (R&D Systems, 391-GR) (human, UniProt P08069 31-932)
T1 construct: Bought soluble protein, used as the analyte in SPR; also called rhIGF1R; recombinant human IGF-1R
Assay: SPR (Biacore T200), ligand immobilised on CM5 chip, rec. human IGF-1R as analyte, 1:1 model
Method: The binding properties were characterized by SPR using a Biacore T200 instrument at 25° C. […] The analyte concentration ranges were adapted to the individual interaction and ranged from 1000-3.9 nM (IGF-1R). […] Kinetic rate constants and KD were calculated by fitting double-referenced sensorgrams to a 1:1 binding model.
A direct binding assay was performed. […] The resulting sensorgrams were fitted to a 1:1 interaction model to calculate the equilibrium dissociation constants (KD).

T1 sequence (P08069 31-932 limits assumed): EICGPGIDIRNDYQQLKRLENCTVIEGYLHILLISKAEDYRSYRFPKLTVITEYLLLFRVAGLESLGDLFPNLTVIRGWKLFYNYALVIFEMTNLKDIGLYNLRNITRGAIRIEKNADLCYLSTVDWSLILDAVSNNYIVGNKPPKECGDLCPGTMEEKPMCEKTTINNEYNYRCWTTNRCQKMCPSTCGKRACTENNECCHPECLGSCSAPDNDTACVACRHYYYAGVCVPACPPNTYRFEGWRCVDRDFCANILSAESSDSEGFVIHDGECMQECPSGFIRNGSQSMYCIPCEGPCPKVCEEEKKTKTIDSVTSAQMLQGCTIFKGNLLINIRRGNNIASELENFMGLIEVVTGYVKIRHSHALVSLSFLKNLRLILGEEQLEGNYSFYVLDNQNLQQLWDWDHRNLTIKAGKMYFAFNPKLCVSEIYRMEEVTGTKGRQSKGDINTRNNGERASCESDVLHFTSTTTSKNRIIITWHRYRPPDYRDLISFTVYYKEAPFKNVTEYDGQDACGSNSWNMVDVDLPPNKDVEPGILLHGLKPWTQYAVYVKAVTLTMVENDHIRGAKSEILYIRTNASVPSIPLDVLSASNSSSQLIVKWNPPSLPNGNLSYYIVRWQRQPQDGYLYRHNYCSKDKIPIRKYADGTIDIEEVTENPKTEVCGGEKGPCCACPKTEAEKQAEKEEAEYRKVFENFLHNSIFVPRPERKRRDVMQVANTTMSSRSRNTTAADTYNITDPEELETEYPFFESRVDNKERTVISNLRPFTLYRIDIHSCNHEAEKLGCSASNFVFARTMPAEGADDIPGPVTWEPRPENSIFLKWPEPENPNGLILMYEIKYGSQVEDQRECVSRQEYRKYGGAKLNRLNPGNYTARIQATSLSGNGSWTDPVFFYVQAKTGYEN

binding result: binds
B1: hIGF-1-Ea-Fc_mut 13/2_A (Fc fusion)
chain: TLCGAELVDALQFVCGDRGFYFNKPTGYGSSSQAAPQTSIVDECCFRSCDLRRLEMYCAPLKPAVQAQQHTDMPKTQKEVHLKNASRGSAGNKNYQMCPPCPAPEAAGGPSVFLFPPKPKDTLMISRTPEVTCVVVDVSHEDPEVKFNWYVDGVEVHNAKTKPREEQYNSTYRVVSVLTVLHQDWLNGKEYKCKVSNKALPAPIEKTISKAKGQPREPQVYTLPPSREEMTKNQVSLTCLVKGFYPSDIAVEWESNGQPENNYKTTPPVLDSDGSFFLYSKLTVDKSRWQQGNVFSCSVMHEALHNHYTQKSLSLSPGK
notes: Modified human IGF-1-Ea precursor joined by hinge 1 to a hIgG1 LALA Fc
